± gives the uncertainty stated by the source.
Assay: protein stability index of a GFP-peptide fusion (yeast GPS) (PSI 1-4); higher = more stable; sorted into four equal gates, so the index is relative within each strain
Method in brief: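 The protein stability index of a peptide was calculated by multiplying its read frequency in each gate by that gate's number and adding the products. The peptides were tiled 17-residue stretches of yeast proteins, fused downstream of GFP on a Cherry-expressing plasmid and carried in yeast as a pooled library. Mid-log cultures in leucine-free medium were sorted into four equal gates by GFP/Cherry ratio, and each gate's plasmids were PCR-amplified and Illumina-sequenced.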

Sequence	protein stability index (doa10∆)	protein stability index (pdr5∆)	protein stability index (san1∆)	protein stability index (ubr1∆)
DYMYENGKLTSANERLF [YML031W/NDC1]	3.37 ± 0.17	3.28 ± 0.11	3.1 ± 0.11	3.23 ± 0.095
RIKLATTSERVSNENKK [RRI1]	2.88 ± 0.063	3.08 ± 0.071	2.94 ± 0.066	3.1 ± 0.11
IKGSKLSLGEAFKKIDA [COR1]	3.29 ± 0.28		2.29 ± 0.16	2.64 ± 0.093
QFVPELKEFTAKLRKEL [FAS2]	1.53 ± 0.061	1.61 ± 0.043	1.53 ± 0.1	1.57 ± 0.026
SLEALIDLCHDFPHLTP [YCS4]	2.31 ± 0.042	2.35 ± 0.036	2.56 ± 0.049	2.25 ± 0.031
PNVDLVTALEVLSLGRP [RGR1]	1.95 ± 0.11	2.1 ± 0.063	2.47 ± 0.1	2.21 ± 0.058
LFVISTEISPMAGSQFE [RRP45]	1.89 ± 0.08	2.21 ± 0.06	2.8 ± 0.077	1.2 ± 0.11
NRAMEYDALLSINVHSN [RET1]	2.58 ± 0.061	2.41 ± 0.064	2.29 ± 0.07	2.68 ± 0.045
ELENSSPELKAELRPLQ [RPS7A]	3.04 ± 0.24	3.53 ± 0.11	2.97 ± 0.15	3.64 ± 0.15
VLTQLTALALKYLIKYN [CSI1]	2.37 ± 0.11	2.75 ± 0.08	2.55 ± 0.11	2.47 ± 0.074
SLYTSREPRVVSALQML [PUP1]	2.66 ± 0.11	2.86 ± 0.065	3.03 ± 0.061	2.92 ± 0.048
WLYVYETPNQDATYDSA [RPN6]	2.62 ± 0.075	2.75 ± 0.067	2.67 ± 0.068	2.49 ± 0.055
YASKAVPHYNRLDSYKV [RPL25]	2.11 ± 0.14	2.7 ± 0.1	2.34 ± 0.12	1.47 ± 0.11
RATNCRKRKCGHTNQLR [RPL40A]	3.25 ± 0.092	3.13 ± 0.058	3.12 ± 0.048	3.17 ± 0.051
ENNDDALDLDLDLFDPD [MED4]	2.89 ± 0.067	2.98 ± 0.098	2.79 ± 0.052	3.1 ± 0.051
GNDTISKFYNMKQPYVF [SSN2]	3.12 ± 0.12	3.05 ± 0.11	3.2 ± 0.057	3.2 ± 0.065
GLVHDLCHPKKEKYGLA [SMC1]	2.59 ± 0.11	2.84 ± 0.12	2.81 ± 0.29	2.17 ± 0.083
TKRSIAIVFEEIKNWIS [YMR129W/POM152]	1.41 ± 0.043	1.82 ± 0.045	1.44 ± 0.076	1.91 ± 0.052
WRSKRIEQLFPVRPVRV [RPC53]	3.25 ± 0.14	3.11 ± 0.087	3.21 ± 0.071	3.08 ± 0.069
LTIKDIVLGVKDLQENL [RPO21]		2.86 ± 0.29	3.6 ± 0.048	
PSIIFIDEVDSIATKRF [RPT3]	3.05 ± 0.096	3.1 ± 0.067	2.96 ± 0.046	3.19 ± 0.068
ESPLSVAIQQGDIKPEF [YML103C/NUP188]	2.23 ± 0.11	1.44 ± 0.08	1.95 ± 0.11	2.38 ± 0.075
VAATNTPIIFIGTGEHI [SRP54]	2.17 ± 0.1	3.03 ± 0.12	2.26 ± 0.083	2.6 ± 0.071
FKVQIIELLSYLVEAPW [YML103C/NUP188]	1.71 ± 0.091	2.03 ± 0.12	1.69 ± 0.21	2.26 ± 0.14
GDSGISPEESKARSPGI [SIR4]	3.52 ± 0.15			
QKVSENFEAVFERLVPR [SMC3]	2.53 ± 0.28			
IAVLIELLEERFQDSNP [YCS4]	1.62 ± 0.032	2.06 ± 0.058	2.66 ± 0.063	2.82 ± 0.069

Sequence	protein stability index (doa10∆)	protein stability index (pdr5∆)	protein stability index (san1∆)	protein stability index (ubr1∆)
WFCPCHGSHYDISGRIR [RIP1]		2.31 ± 0.18	2.64 ± 0.25	
KIAKRRQVYKPVLDNPF [POP3]	1.92 ± 0.077	2.33 ± 0.082	1.99 ± 0.11	2.08 ± 0.066
PFQLDVADMLTPEYAAE [UBP6]	2.95 ± 0.17	2.65 ± 0.19	2.7 ± 0.085	2.77 ± 0.16
TDQLIQNIETRQLANLI [NUT1]	3.15 ± 0.11	3.14 ± 0.12	2.94 ± 0.13	3.01 ± 0.051
YRPLTPSSEVYSPIEKE [RRP6]	2.74 ± 0.071	3.03 ± 0.064	2.69 ± 0.073	2.91 ± 0.066
LKKDIESLRGILHVRAQ [SRP72]	1.9 ± 0.1	2.39 ± 0.12	2.11 ± 0.22	2.07 ± 0.062
DSSLQPEYFESPLQSSK [YMR129W/POM152]	3.19 ± 0.2	2.98 ± 0.12		2.56 ± 0.13
EIYRISFQLSKIRRAAR [RPS9A]	1.95 ± 0.043	2.15 ± 0.062	2.3 ± 0.048	2.29 ± 0.046
ESIDVDMDAESNESQNG [SMC3]	3.21 ± 0.094	2.91 ± 0.079	2.65 ± 0.066	3.27 ± 0.037
SSDELKVIEEQLKHTKL [SMC4]	3.27 ± 0.061	3.3 ± 0.077	3.04 ± 0.067	3.25 ± 0.058
YLLTQQQIWKSPNFKNY [SOH1]	1.73 ± 0.047	1.62 ± 0.05	1.18 ± 0.081	2.19 ± 0.03
SDVLLFQLPTTCVSMAP [RGR1]	2.25 ± 0.047	1.83 ± 0.036	1.87 ± 0.05	1.77 ± 0.028
HRDAYSGGSVNLYHVTE [PRE2]	2.81 ± 0.11	3.32 ± 0.086	3 ± 0.07	3.03 ± 0.073
SLDLIKERRSLKPEVRK [RPL24A]				3.32 ± 0.22
LSLGMDFIKFDQIAVCE [BRN1]	3 ± 0.085	3.01 ± 0.079	2.77 ± 0.057	2.89 ± 0.071
SLGSSSTTASGTTATGT [YGR119C/NUP57]	3.08 ± 0.072	3.31 ± 0.076	3.08 ± 0.067	3.18 ± 0.067
TKQRLDAYYDLELRNSV [PRP8]	2.64 ± 0.046	2.93 ± 0.039	2.86 ± 0.039	2.74 ± 0.035
DTVNSALENDVATNIVN [YML103C/NUP188]	2.87 ± 0.051	3.14 ± 0.064	3.09 ± 0.046	3.19 ± 0.055
SHTQNIGHLIKTRFKGS [SMC2]	2.94 ± 0.11	1.98 ± 0.086	1.96 ± 0.13	2.27 ± 0.066
KENFILDSLMKTTRLLL [YJL039C/NUP192]	1.96 ± 0.057	1.64 ± 0.05	1.42 ± 0.095	1.61 ± 0.05
PAKVEDVQKSSDSSSED [YLR335W/NUP2]	2.84 ± 0.1	2.41 ± 0.097	2.4 ± 0.11	1.65 ± 0.053
PSQGMVVEISNGNTSSK [FAS1]	3.08 ± 0.057	3.27 ± 0.051	3.2 ± 0.048	3.29 ± 0.056
LKLCVQELEKRMPMDFK [PRE1]	3.15 ± 0.19	3.34 ± 0.099	3.18 ± 0.054	3.37 ± 0.085
INDAGKAKKLIQSLPPT [RPL38]	2.17 ± 0.047	2.38 ± 0.042	1.96 ± 0.059	2.56 ± 0.03
SCIAVMAGLMHFKKPDI [RRP45]	2.02 ± 0.062	1.66 ± 0.053	1.77 ± 0.08	1.69 ± 0.035
RKPILLPDPKPLPLDLN [ITC1]	2.34 ± 0.044	2.55 ± 0.045	2.52 ± 0.065	2.14 ± 0.04
EPAIEEENGDSIKEHST [MED1]	3.32 ± 0.19		3.23 ± 0.14	3.56 ± 0.14

Sequence	protein stability index (doa10∆)	protein stability index (pdr5∆)	protein stability index (san1∆)	protein stability index (ubr1∆)
REIQIDAVLKIFSFHQD [SRB8]	3.27 ± 0.08	3.12 ± 0.09	3.06 ± 0.052	3.04 ± 0.04
YEKNFEATLESKLKEEE [ESC2]	3.09 ± 0.12	3.13 ± 0.17	3.03 ± 0.071	3.18 ± 0.13
LLLSPDQWYCIDKLEDL [ITC1]	3.06 ± 0.11	3.4 ± 0.11	3.22 ± 0.097	2.48 ± 0.077
QYSLERNSPFWWTNSHH [PRP8]	2.56 ± 0.078	2.79 ± 0.065	2.4 ± 0.057	2.69 ± 0.052
LVASAKGLQTVVVEEDA [RPL31A]	2.48 ± 0.091	2.51 ± 0.1	2.54 ± 0.087	2.42 ± 0.085
LFEQLQTVSNKEDAKAT [SRP54]	3.41 ± 0.14	3.04 ± 0.1	3.18 ± 0.054	3.18 ± 0.059
RNQEKKMEKKKSSSLSL [SNM1]	3.53 ± 0.22	3.5 ± 0.16	2.68 ± 0.22	2.98 ± 0.1
GVTSLGIKATNGVVIAT [PRE8]	2.82 ± 0.14	2.62 ± 0.16	3.05 ± 0.1	3.28 ± 0.29
IAAMVAQKCGWTIPHKK [SIR2]	2.33 ± 0.096	2.41 ± 0.2	2.06 ± 0.15	2.35 ± 0.051
AGYTTHLMKRIQKGPVR [RPS17A]	2.2 ± 0.11	2.97 ± 0.15	1.86 ± 0.16	2.57 ± 0.096
DINVELFPVAAQDSLTV [RPB8]	1.33 ± 0.24	1.82 ± 0.11	1.16 ± 0.23	1.94 ± 0.069
TFVYILEKLIFDMTNHY [SRB8]	1.71 ± 0.061	1.93 ± 0.042	1.69 ± 0.1	1.69 ± 0.039
ILCGIQEYLNPVIDTQI [YDL116W/NUP84]		2.12 ± 0.2	2.01 ± 0.17	
TWTNSKIFIKDPKFVNS [YML103C/NUP188]	2.27 ± 0.11	2.05 ± 0.06	1.71 ± 0.11	1.73 ± 0.062
PQMQCALQNLSQLPITP [YGL172W/NUP49]	2.06 ± 0.087	2.23 ± 0.098	2.12 ± 0.1	2.23 ± 0.068
AGFTHKLSNWLFGWNDL [YDL088C/ASM4]	2.69 ± 0.065	3.06 ± 0.059	2.9 ± 0.063	2.93 ± 0.037
ELGEFFVNGVATSFSRK [FAS2]	2.98 ± 0.07	2.6 ± 0.075	2.63 ± 0.1	2.69 ± 0.048
PILVTLVSDSEIIDLNL [POP6]	2.29 ± 0.058	2.47 ± 0.046	2.36 ± 0.074	2.74 ± 0.054
DIVPYFLKHNGEEDAVD [RPN1]	3.26 ± 0.12	3.27 ± 0.18	2.95 ± 0.17	3.22 ± 0.094
TLQDFHLIFSNARIYNT [SNF2]	2.25 ± 0.081	2.17 ± 0.1	1.63 ± 0.18	2.79 ± 0.073
WLLHNGFSTGIGDTIAD [RPO21]	3.11 ± 0.16	3.24 ± 0.17	3.26 ± 0.093	3.06 ± 0.15
SDRECPKCHSRENVFFQ [RPB9]	2.88 ± 0.062	2.74 ± 0.061	2.47 ± 0.058	2.79 ± 0.04
DDDDSRKSAPVDSWDRE [SKP1]	3.15 ± 0.047	3.21 ± 0.048	3.21 ± 0.048	3.23 ± 0.044
GLTTVWLLSALGNSIVK [REC8]	1.61 ± 0.085	2.31 ± 0.075	2.13 ± 0.14	1.77 ± 0.12
EDLFETISQALLNAADR [PUP3]	2.81 ± 0.12	2.01 ± 0.089	1.89 ± 0.16	1.92 ± 0.067
